First the molecules themselves.
B1: Sample No. 1: [DFO-C(═O)-(1,3-phenylene)-C(═O)-Gly-Lys-Z2]p-Fab (Fab, V domains shown)
VH: QVQLVQSGAEVKKPGASVKVSCKASGYTFTNYGLSWVRQAPGQGLEWMGENHPGSGIIYHNEKFRGRVTLTADRSTSTAYMELSSLRSEDTAVYYCARSSGTRGFDYWGQGTLVTVSS
VL: DVVMTQTPLSLSVTPGQPASISCRSSQSIVHSNGNTYLEWYLQKPGQSPQLLIYRVSNRFSGVPDRFSGSGSGTDFTLKISRVEAEDVGVYYCFQGSHGPWTFGQGTKLEIKR
modifications: may carry the labeling moiety; sites not stated; [DFO-C(═O)-(1,3-phenylene)-C(═O)-Gly-Lys-Z2] labeling moiety bound via 2-iminothiolane to amino group(s) of the Fab, one or two per Fab by MS, sites and chain not stated; N-terminal Gln into pyroglutamic acid in a great majority (Example 2)
B2: Sample No. 5: [DOTA-Gly-Lys-Z2]p-Fab (Fab, V domains shown)
VH: B1 VH
VL: B1 VL
modifications: may carry the labeling moiety; sites not stated; [DOTA-Gly-Lys-Z2] labeling moiety bound via 2-iminothiolane to amino group(s) of the Fab, one or two per Fab by MS, sites and chain not stated; N-terminal Gln into pyroglutamic acid in a great majority (Example 2)
B3: Sample No. 2: [DFO-C(═O)-CH2O-(1,3-phenylene)-C(═O)-Gly-Lys-Z2]p-Fab (Fab, V domains shown)
VH: B1 VH
VL: B1 VL
modifications: may carry the labeling moiety; sites not stated; [DFO-C(═O)-CH2O-(1,3-phenylene)-C(═O)-Gly-Lys-Z2] labeling moiety bound via 2-iminothiolane to amino group(s) of the Fab, one or two per Fab by MS, sites and chain not stated; N-terminal Gln into pyroglutamic acid in a great majority (Example 2)
B4: Sample No. 6: [DOTA-NH-CH2-(1,3-phenylene)-C(═O)-Gly-Lys-Z2]p-Fab (Fab, V domains shown)
VH: B1 VH
VL: B1 VL
modifications: may carry the labeling moiety; sites not stated; [DOTA-NH-CH2-(1,3-phenylene)-C(═O)-Gly-Lys-Z2] labeling moiety bound via 2-iminothiolane to amino group(s) of the Fab, one to three per Fab by MS, sites and chain not stated; N-terminal Gln into pyroglutamic acid in a great majority (Example 2)
B5: Sample No. 3: [DOTA-CH2-(1,4-phenylene)-NH-C(═S)]p-Fab (Fab, V domains shown)
VH: B1 VH
VL: B1 VL
modifications: may carry the labeling moiety; sites not stated; [DOTA-CH2-(1,4-phenylene)-NH-C(═S)] (from p-SCN-Bn-DOTA) bound to amino group(s) of the Fab, one to four per Fab by MS, sites and chain not stated; N-terminal Gln into pyroglutamic acid in a great majority (Example 2)
B6: Sample No. 4: [DOTA]p-Fab (Fab, V domains shown)
VH: B1 VH
VL: B1 VL
modifications: may carry the labeling moiety; sites not stated; DOTA bound directly (via N-hydroxysulfosuccinimidyl DOTA) to amino group(s) of the Fab, one or two per Fab by MS, sites and chain not stated; N-terminal Gln into pyroglutamic acid in a great majority (Example 2)
B7: Sample No. 7: [DOTA-Met-Ile-NH-(CH2)2-Z1]p-Fab (Fab, V domains shown)
VH: B1 VH
VL: B1 VL
modifications: may carry the labeling moiety; sites not stated; [DOTA-Met-Ile-NH-(CH2)2-Z1] labeling moiety bound via 2-iminothiolane to amino group(s) of the Fab, one to three per Fab by MS, sites and chain not stated; N-terminal Gln into pyroglutamic acid in a great majority (Example 2)

This assay deals with Human cancer-specific MUC1 peptide (PTL 1) (human). The assay can be described thus: ELISA, MUC1 peptide immobilized on 384-well plate, HRP anti-human Igκ detection, luminescence.
Usually EC50 stands for the midpoint of the concentration-response curve. A low value points to greater potency. In turn, B1 gave an EC50 of 0.29 nM.

Turning to B2, the EC50 was determined as 0.31 nM.

B3: the EC50 worked out at 0.3 nM.

As to B4, the EC50 is 0.3 nM.

B5 showed an EC50 of 0.49 nM.

B6 gave an EC50 of 0.35 nM. The EC50 values of the last two molecules are within 1.5-fold of each other.

In turn, B7 returned an EC50 of 0.31 nM.

For the origin of these results see US20210340276A1.
